As usually defined, the Kd is the free concentration of one partner at which half of the binding sites on the other are occupied at equilibrium, for simple one-to-one binding.

What all share (assay): SPR
Data set [1] has as its target L7-1F08-A11 (L7A11, EsR A11) (Artificial Sequence) (UniProt P04483). As to conditions: ka 7.1e4 M-1 s-1, kd 1.7e-2 s-1; operator sequence not given for SPR.
Data set [2] deals with L7-1C03-A5 (EsR1) (Artificial Sequence). The settings on record: ka 4.7e4 M-1 s-1, kd 7.8e-3 s-1; operator sequence not given for SPR.
Data set [3] has as its system L7-3E03-D1 (EsR D01) (Artificial Sequence). As to conditions: ka 5.5e4 M-1 s-1, kd 1.1e-2 s-1; operator sequence not given for SPR.
Data set [4] has as its target Wt TetR(B) (Tn10) (Escherichia coli) (UniProt P04483). As to conditions: ka 3.3e5 M-1 s-1, kd 3.0e-3 s-1; operator sequence not given for SPR.
The subject of data set [5] is L7-1G06-B2 (Artificial Sequence). The settings on record: ka 4.6e4 M-1 s-1, kd 1.9e-2 s-1; operator sequence not given for SPR.

On to tet operator used for SPR, for which the Kd in data set [1] came to 250 nM; in data set [2], 150 nM; in data set [3], 200 nM; in data set [4], 9 nM; in data set [5], 430 nM.

(Values after patent US20110287936.)
